Measurements published in US20200299408A1.
Positions count from the first letter of the chain named. Names and notes keep the numbering of the source.

B1: SP34v52 Fab (Fab, V domains shown)
VH: EVQLVESGGGLVQPGGSLRLSCAASGFTFNTYAMNWVRQAPGKGLEWVARIRSKYNNYATYYADSVKDRFTISRDDSKNTLYLQMNSLRAEDTAVYYCVRHGNFGNSYVSWFAYWGQGTLVTVSS
VL: EAVVTQEPSLTVSPGGTVTLTCRSSTGAVTTSNYANWVQQKPGQAPRGLIGGTNKRAPWTPARFSGSLLGGKAALTLSGAQPEDEAEYYCALWYSNLWVFGGGTKLTVL
B2: hu38E4.v1 Fab (Fab, V domains shown)
VH: EVQLVQSGAEVKKPGASVKVSCKASGFTFTSYYIHWVRQAPGQGLEWIGWIYPENDNTKYNEKFKDRVTITADTSTSTAYLELSSLRSEDTAVYYCARDGYSRYYFDYWGQGTLVTVSS
VL: DIVMTQSPDSLAVSLGERATINCKSSQSLLNSRTRKNYLAWYQQKPGQSPKLLIYWTSTRKSGVPDRFSGSGSGTDFTLTISSLQAEDVAVYYCKQSFILRTFGQGTKVEIK
B3: murine 13A3 (antibody, V domains shown)
VH: EVQLQQSGPELVKPGASVRISCKASGYTFTSYYIHWMKQRPGQGLEWIGWIYPGNVNTKYNEKFKGKATLTADNSSSTANMQLSSLTSEDSAVYFCARNHDYYFDYWGQGTTLTVSS
VL: DIVLTQSPSSLAVSAGEKVTMSCKSSQSLLNSRTRKNYLAWYQQKPGQSPKLLIYWASTRESGVPDRFTGSGSGTDFTLTISSVQAEDLAVYYCKQSYILRTFGGGTKLEIK
B4: murine 30A1 (antibody, V domains shown)
VH: QVQLKESGPGLVAPSQSLSITCTVSGFSLTNYAIHWVRQPPGKGLDWLGVIWAGGNTKYNSALMSRLSFSKDNSKSQVFLEINSLQTDDTAMYYCAREDSSGYVALDYWGQGTSVTVSS
VL: B3 VL with D1N, L4M, N31S, S32G, I99Y, R101L, G105A, I111L
B5: humanized 30A1: VH3 graft + A24V / K4 graft (antibody, V domains shown)
VH: EVQLVESGGGLVQPGGSLRLSCAVSGFSLTNYAIHWVRQAPGKGLEWVGVIWAGGNTKYNSALMSRFTISRDNSKNTLYLQMNSLRAEDTAVYYCAREDSSGYVALDYWGQGTLVTVSS
VL: B2 VL with N31S, S32G, S49P, T57A, K61E, F98Y, I99Y, R101L
B6: 14C7 (antibody, V domains shown)
VH: EVQLQQSGPELVKPGTSVKISCKASGFSFTNYYIHWMKQRPGQGLEWIGWIYPGSDNTKFNDKFKGKATLTADTSSTTAYMQLSSLTSEDSAVYYCARDSITNYYFDYWGQGTTLTVSS
VL: DVVMTQTPSSLAVSTGEKVTMTCKSSQSLLNIRTRKNCLAWYQQKPGQSPKLLIFWASTRYSGVPDRFTGSGSGTDFTLTIRSVQPEDLAVYYCTQSYTLRTFGGGTKLEIK
B7: 18F12 (antibody, V domains shown)
VH: QVQLQQSGPELVKPGASVKISCKASGYSFTNYYMHWVKQRPGQGLEWIGWISPGSGSIKYNEKFKGKATLTADTSSSTAYMQLSSLTSEDSAVYYCARDGYSLYFFDFWGQGTTLTVSS
VL: B3 VL with L4M, S22T, Y98F, I111L
B8: 27H5-1 (antibody, V domains shown)
VH: QVQLQQSGPELVKPGTSVKISCKTSGYSFINYYTHWVKQRPGQGLEWIGWIYPGNGNIKYNEKFMGKATLTADTSSTTAHMHLSSLVSEDSAVYYCARDSYGSYYFDYWGQGTTLTVSS
VL: B3 VL with L4M, A15V, D66V, K95T, Y98F
B9: muSP34 (antibody, V domains shown)
VH: B1 VH with G15K, R19K, K78Q, N79S, T80I, S87N, R89K, A90T, V95M
VL: QAVVTQESALTTSPGETVTLTCRSSTGAVTTSNYANWVQEKPDHLFTGLIGGTNKRAPGVPARFSGSLIGDKAALTITGAQTEDEAIYFCALWYSNLWVFGGGTKLTVL
B10: 38E4v1 (bispecific antibody, part only; not given: anti-HER2 arm and constant regions, V domains shown, not shown: another chain or arm of the molecule; a dimerising Fc or GST)
VH: B2 VH
VL: B2 VL

Target: hCD3ε1-27-Fc
Sequence (fusion chain, as listed by the source): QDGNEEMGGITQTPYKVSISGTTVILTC
Assay: monovalent binding affinity (p-1384), method not stated on the sheet

Q: B1 was tested. Which Kd did it give?
A: 11 nM

Q: Which Kd does the source give for B2 here?
A: 1 nM

Target: commercial CD3ε
Sequence (P07766 22-126): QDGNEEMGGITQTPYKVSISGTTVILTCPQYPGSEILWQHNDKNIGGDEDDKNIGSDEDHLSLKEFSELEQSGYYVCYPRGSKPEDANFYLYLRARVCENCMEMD
Assay: binding affinity on commercial CD3ε (Creative Biomart CD3E-2194H); method not given

Q: For B3, which Kd is on record?
A: 0.7 nM

Q: B4 was tested. Which Kd did it give?
A: 0.4 nM

Q: How did the Kd turn out when B5 was run?
A: 1.7 nM

Target: CD3 antigen of Figures 3B and 3C (not named)
Assay: kinetic table of IgGs; method and antigen not stated

Q: With B6 as the binder, how does the Kd read?
A: 0.228 nM

Q: What about the koff of the same binder?
A: 3.79e-05 s⁻¹

Q: What about the kon of the same binder?
A: 166000 M⁻¹ s⁻¹

Q: How did the Kd turn out when B7 was run?
A: 0.119 nM

Q: And the koff?
A: 1.59e-05 s⁻¹

Q: And the kon?
A: 134000 M⁻¹ s⁻¹

Q: Which Kd does the source give for B8 here?
A: 0.492 nM

Q: And the koff?
A: 0.000115 s⁻¹

Q: What about the kon of the same binder?
A: 234000 M⁻¹ s⁻¹

Q: Which Kd does the source give for B9 here?
A: 0.249 nM

Q: What about the koff of the same binder?
A: 4e-05 s⁻¹

Q: And the kon?
A: 161000 M⁻¹ s⁻¹

Target: human CD3 on T cells (human) (UniProt P07766)
Sequence (P07766 22-207 limits assumed): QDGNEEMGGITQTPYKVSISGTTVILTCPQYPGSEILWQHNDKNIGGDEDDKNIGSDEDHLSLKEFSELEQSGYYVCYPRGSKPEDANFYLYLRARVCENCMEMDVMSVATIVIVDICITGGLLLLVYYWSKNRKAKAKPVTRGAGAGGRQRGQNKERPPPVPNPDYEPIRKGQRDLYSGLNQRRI
Assay: Biacore, monovalent KD of the CD3 arm; form of the CD3 antigen not stated on the sheet [panel B]

Q: For B10, which Kd is on record?
A: 1.3 nM
